Experimental findings from PMC4713133 (Molecular Biology of the Cell, 2016) are described below.

The target in one experiment is Sec8-Myc (rat, UniProt Q62824 1-975). Put plainly: pull-down.
In a further experiment the target is Sec5-Myc (rat, UniProt O54921 1-924). Put plainly: pull-down.
Sec5-Myc, sequence (O54921 whole entry): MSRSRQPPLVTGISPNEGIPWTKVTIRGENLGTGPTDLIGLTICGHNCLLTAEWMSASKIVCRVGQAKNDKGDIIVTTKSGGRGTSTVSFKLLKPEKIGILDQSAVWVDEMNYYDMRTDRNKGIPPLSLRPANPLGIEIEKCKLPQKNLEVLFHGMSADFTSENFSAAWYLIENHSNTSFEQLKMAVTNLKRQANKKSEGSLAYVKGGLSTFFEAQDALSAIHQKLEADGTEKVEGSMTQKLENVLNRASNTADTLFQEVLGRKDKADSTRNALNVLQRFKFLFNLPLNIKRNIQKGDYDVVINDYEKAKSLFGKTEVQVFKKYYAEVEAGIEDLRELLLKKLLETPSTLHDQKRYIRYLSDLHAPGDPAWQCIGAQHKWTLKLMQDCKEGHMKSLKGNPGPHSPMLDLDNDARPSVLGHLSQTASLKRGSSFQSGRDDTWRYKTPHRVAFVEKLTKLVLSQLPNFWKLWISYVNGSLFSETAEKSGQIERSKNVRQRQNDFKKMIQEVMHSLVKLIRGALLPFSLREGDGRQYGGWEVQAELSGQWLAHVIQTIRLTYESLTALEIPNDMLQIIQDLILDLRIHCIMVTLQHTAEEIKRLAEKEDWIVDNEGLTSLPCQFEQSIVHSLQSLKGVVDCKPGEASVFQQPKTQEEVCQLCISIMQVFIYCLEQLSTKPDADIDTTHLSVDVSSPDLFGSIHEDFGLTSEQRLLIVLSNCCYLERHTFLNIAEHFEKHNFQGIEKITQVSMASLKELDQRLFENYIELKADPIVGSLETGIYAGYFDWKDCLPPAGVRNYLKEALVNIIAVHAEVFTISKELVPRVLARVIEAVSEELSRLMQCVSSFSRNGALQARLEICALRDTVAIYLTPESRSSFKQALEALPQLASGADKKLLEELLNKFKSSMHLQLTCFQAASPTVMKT

Sec8-Myc, sequence (Q62824 whole entry): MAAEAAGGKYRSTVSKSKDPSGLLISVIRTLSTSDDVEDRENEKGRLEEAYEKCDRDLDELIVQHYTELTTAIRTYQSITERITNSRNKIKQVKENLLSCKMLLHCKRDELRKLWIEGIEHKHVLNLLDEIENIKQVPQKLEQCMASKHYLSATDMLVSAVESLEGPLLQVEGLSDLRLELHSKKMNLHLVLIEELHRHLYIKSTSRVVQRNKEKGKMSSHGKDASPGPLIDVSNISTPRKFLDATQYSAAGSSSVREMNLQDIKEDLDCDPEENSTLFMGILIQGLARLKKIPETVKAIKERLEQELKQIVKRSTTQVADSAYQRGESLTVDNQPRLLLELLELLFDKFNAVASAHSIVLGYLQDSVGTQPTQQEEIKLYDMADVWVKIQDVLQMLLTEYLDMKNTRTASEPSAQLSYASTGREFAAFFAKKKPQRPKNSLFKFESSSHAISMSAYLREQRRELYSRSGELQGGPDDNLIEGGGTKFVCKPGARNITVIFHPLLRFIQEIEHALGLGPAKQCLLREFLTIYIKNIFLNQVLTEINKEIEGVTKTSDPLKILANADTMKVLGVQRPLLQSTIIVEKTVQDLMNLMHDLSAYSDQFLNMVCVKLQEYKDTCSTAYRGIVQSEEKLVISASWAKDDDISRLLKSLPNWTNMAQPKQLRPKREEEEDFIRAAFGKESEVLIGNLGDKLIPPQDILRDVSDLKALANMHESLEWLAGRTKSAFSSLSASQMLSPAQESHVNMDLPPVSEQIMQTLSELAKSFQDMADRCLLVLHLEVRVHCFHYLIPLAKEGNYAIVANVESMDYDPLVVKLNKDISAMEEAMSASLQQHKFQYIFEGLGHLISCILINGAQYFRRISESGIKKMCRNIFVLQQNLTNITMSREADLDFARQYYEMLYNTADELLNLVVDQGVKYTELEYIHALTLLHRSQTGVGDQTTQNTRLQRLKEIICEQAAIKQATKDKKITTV

B1: Arl13b-GST (natural protein)
chain: not shown
Regarding B1, the binding result in the experiment with Sec8-Myc and with Sec5-Myc was “binds” throughout.
